From patent US20080213836A1 come the findings set out here.

For assay [1], the target named is Medaka EP-1 serine protease domain (wild-type) (Oryzias latipes (Japanese Medaka)). Kind of assay: cell-based or functional assay.
The target of assay [2] is Medaka EP-2 serine protease domain (Oryzias latipes (Japanese Medaka)). The assay can be described thus: cell-based or functional assay.

Sequence of Medaka EP-1 serine protease domain (wild-type) (Oryzias latipes (Japanese Medaka)) (chain, as listed by the source limits assumed): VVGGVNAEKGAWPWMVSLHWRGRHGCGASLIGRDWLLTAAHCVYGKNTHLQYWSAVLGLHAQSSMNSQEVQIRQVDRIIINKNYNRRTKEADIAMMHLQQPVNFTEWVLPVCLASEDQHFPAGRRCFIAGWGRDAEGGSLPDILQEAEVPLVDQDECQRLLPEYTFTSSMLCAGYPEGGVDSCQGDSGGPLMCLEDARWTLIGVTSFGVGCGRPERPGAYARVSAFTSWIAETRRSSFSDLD

SBTI (from UniProt P01070 25-205): the Inhibition (%) of GD4K-βNA hydrolysis at 0.1 mg/ml in assay [1] and in assay [2] was 99% in each case.
